B1: K1B (biotinylated K1 domain of HGF/SF, residues 125-209 with C-terminal GGK(biotin) extension) (ligand)
chain: IRNCIIGKGRSYKGTVSITKSGIKCQPWSSMIPHEHSFLPSSYRGKDLQENYCRNPRGEEGGPWCFTSNPEVRYEVCDIPQCSEVGGK
modifications: C-terminal lysine of the GGK extension modified on its side chain with a biotin group; three native disulfide bonds
notes: also called K1-Biot; biotinylated version of the K1 domain
B2: NB (ligand, human, UniProt P14210 31-127, looked up)
single chain: GQRKRRNTIHEFKKSAKTTLIKIDPALKIKTKKVNTADQCANRCTRNKGLPFTCKAFVFDKARKQCLWFPFNSMSSGVKKEFGHEFDLYENKDYIRN
modifications: biotinylated; the site is not stated for NB
notes: isolated N domain, chemically synthesised and biotinylated, not pre-mixed with soluble streptavidin; It is distinct from m9, the NB/S complex pre-mixed 2:1 with streptavidin; In both assays NB is presented on streptavidin-coated beads; also called biotinylated N domain of HGF/SF

What was measured:
[1] = molecular target: T1, MET-Fc (extracellular MET domain fused with human IgG1-Fc) (human, UniProt P08581 25-932); experiment: AlphaScreen saturation assay; the reference is a literature value that is not given
T1 construct: extracellular domain; Recombinant chimera; also called recombinant extracellular MET-Fc chimera; hMET-Fc; not shown: human IgG1 Fc
T1 sequence (P08581 25-932): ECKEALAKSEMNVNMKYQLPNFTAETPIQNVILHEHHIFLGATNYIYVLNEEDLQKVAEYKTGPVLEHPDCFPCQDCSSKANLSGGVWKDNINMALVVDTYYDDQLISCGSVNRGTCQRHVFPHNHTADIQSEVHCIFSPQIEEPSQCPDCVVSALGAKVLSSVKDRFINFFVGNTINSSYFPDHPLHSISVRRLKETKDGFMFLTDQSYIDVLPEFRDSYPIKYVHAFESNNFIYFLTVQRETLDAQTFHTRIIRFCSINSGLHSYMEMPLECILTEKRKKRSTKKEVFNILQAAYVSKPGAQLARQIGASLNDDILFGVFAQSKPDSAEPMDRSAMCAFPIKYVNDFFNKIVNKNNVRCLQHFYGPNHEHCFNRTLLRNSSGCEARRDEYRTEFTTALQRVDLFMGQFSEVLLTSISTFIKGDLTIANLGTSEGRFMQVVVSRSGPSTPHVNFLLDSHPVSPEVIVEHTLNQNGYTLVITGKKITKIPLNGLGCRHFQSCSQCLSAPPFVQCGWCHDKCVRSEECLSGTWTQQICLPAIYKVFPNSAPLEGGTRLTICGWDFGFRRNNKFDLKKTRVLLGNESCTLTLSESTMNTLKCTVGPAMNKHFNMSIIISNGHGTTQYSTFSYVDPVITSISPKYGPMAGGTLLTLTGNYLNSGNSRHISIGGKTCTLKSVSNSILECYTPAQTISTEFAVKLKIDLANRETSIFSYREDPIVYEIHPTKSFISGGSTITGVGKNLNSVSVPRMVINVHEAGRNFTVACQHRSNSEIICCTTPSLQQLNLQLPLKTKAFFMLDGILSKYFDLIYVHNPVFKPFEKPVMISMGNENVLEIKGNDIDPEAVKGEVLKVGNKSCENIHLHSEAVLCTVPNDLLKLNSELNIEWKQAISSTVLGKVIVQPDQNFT
Description: (§1) Dashed arrows indicate distances between subdomain C-termini. (b) NB, K1B and MET-Fc binding assay. Increasing concentrations of NB or K1B were mixed with extracellular MET domain fused with human IgG1-Fc (MET-Fc), and incubated with streptavidin AlphaScreen donor beads and Protein A acceptor beads. Error bars correspond to standard error (+/−SD) of triplicates. (c) Endogenous MET capture. Streptavidin coated beads loaded with NB or K1B were incubated with HeLa or Capan-1 total cell lysates. Input, flow-through and elution fractions from NB or K1 loaded beads were analyzed by specific total MET western blot.
The binding of K1B/S complexes to MET was examined using AlphaScreen technology. K1B was loaded on streptavidin-coated donor beads and incubated with recombinant extracellular MET-Fc chimera loaded on Protein A-coated acceptor beads. If K1B/S donor beads interact with MET-Fc/Protein A acceptor beads, a chemical energy transfer is possible between the beads, leading to fluorescence emission upon laser excitation. […] Since the bead-based AlphaScreen assay can generate avidity and thus introduce a bias in the estimation of the apparent KD in saturation experiments, it was performed the reciprocal competition assay by adding increasing concentrations of preformed K1B/S complex (2:1 molar ratio) into the K1B/MET-Fc/AlphaScreen bead mixture (FIG. 6). […]

[2] = molecular target: T1, MET-Fc (extracellular MET domain fused …); experiment: AlphaScreen saturation assay: K1B on streptavidin donor beads, MET-Fc on Protein A acceptor beads
Description: as §1, with “FIG. 4. K1B and NB MET binding properties. (a) Structure of NK1 dimer (center, PDB 1BHT) and spatial relative orientation of each N (left) and K1 (right) monomers within the dimer. Dashed” for “Dashed”
(§2) The binding of K1B/S complexes to MET was examined using AlphaScreen technology. K1B was loaded on streptavidin-coated donor beads and incubated with recombinant extracellular MET-Fc chimera loaded on Protein A-coated acceptor beads. If K1B/S donor beads interact with MET-Fc/Protein A acceptor beads, a chemical energy transfer is possible between the beads, leading to fluorescence emission upon laser excitation. […]

[3] = molecular target: T1, MET-Fc (extracellular MET domain fused …); experiment: AlphaScreen saturation assay: K1B on streptavidin-coated donor beads, MET-Fc on Protein A-coated acceptor beads (apparent, multivalent display); saturation assay; K1B on streptavidin-coated donor beads (apparent KD, avidity possible)
Description: as §1, with “FIG. 4. K1B and NB MET binding properties. (a) Structure of NK1 dimer (center, PDB 1BHT) and spatial relative orientation of each N (left) and K1 (right) monomers within the dimer. Dashed” for “Dashed”
as §2

[4] = molecular target: T2, endogenous MET receptor of human cells (HeLa, Capan-1) (human, UniProt P08581 25-1390); experiment: pull-down of endogenous MET from HeLa and Capan-1 total cell lysates on streptavidin beads loaded with NB, total MET western blot
T2 construct: whole, on cells; On living HeLa cells in the signalling assays; from whole cell lysates of HeLa or Capan-1 cells in the capture experiment; also called tyrosine kinase receptor MET
T2 sequence (P08581 25-1390): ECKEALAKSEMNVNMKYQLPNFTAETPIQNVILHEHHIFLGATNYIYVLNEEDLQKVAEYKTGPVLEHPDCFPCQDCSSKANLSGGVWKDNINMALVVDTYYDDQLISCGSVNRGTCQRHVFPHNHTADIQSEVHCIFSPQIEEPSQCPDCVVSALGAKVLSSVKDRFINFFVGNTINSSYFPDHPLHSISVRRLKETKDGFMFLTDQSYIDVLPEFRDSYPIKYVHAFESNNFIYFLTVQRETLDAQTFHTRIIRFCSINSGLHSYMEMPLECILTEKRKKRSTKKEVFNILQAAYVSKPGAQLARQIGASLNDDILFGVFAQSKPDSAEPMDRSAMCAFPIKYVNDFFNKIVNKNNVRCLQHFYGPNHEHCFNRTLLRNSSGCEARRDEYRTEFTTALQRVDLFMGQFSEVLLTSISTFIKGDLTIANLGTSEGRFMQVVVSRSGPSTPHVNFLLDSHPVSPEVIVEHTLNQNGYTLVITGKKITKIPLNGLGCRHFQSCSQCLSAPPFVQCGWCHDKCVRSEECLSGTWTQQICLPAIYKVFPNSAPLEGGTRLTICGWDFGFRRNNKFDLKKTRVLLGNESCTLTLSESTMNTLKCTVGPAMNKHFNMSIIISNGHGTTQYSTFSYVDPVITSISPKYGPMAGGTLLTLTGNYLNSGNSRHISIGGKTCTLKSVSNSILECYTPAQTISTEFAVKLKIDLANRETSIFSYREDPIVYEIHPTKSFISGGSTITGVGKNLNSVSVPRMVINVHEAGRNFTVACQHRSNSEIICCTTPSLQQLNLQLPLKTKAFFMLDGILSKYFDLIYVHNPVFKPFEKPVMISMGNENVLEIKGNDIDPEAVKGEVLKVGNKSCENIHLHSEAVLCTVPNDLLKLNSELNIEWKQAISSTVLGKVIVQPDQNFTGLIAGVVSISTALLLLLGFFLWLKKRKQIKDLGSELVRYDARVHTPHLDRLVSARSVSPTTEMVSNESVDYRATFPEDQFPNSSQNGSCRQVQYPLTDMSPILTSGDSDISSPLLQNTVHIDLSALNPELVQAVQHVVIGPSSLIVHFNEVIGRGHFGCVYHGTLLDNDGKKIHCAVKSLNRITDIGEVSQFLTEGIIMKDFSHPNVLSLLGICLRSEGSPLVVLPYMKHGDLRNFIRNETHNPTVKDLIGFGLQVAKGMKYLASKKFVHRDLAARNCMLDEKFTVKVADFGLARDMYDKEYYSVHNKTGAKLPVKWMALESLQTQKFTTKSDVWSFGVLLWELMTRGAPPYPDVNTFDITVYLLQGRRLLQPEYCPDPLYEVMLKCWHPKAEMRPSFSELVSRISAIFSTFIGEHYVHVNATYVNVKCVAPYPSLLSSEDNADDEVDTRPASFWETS
Description: as §1, with “FIG. 4. K1B and NB MET binding properties. (a) Structure of NK1 dimer (center, PDB 1BHT) and spatial relative orientation of each N (left) and K1 (right) monomers within the dimer. Dashed” for “Dashed”
HeLa and Capan-1 cells were collected by scraping and then lysed on ice with a lysis buffer (20 mM Tris HCl, 50 mM NaCl, 5 mM EDTA and 1% Triton X-100). Lysates were clarified by centrifugation (20,000 g×15 min) and protein concentration was determined (BCA protein assay Kit, Pierce®, Thermo scientific, IL, USA). Streptavidin-Sepharose beads (GE Healthcare) were washed and equilibrated in PBS. Beads were loaded with 15 μg K1B or NB (100 μl beads in a 50:50 PBS:bead slurry) for 20 min at room temperature and immediately washed with PBS. […] Elution fractions were then analyzed by western blotting.

[5] = molecular target: T1, MET-Fc (extracellular MET domain fused …); experiment: AlphaScreen saturation assay: NB on streptavidin donor beads, MET-Fc on Protein A acceptor beads
Description: as §1, with “FIG. 4. K1B and NB MET binding properties. (a) Structure of NK1 dimer (center, PDB 1BHT) and spatial relative orientation of each N (left) and K1 (right) monomers within the dimer. Dashed” for “Dashed”
as §2

Binder | fold lower apparent KD than the KD reported for monomeric K1 protein-MET interaction [1] [fold] | EC50 (read off the curve) [2] [nM] | Kd [3] [nM] | binding result [4] | binding result [5]
B1 | ~100 | ~20 | ~16 |  | 
B2 |  |  |  | no binding | no binding (tested: 300 nM)

Source: patent US20180008723A1 (UNIVERSITE DES SCIENCES ET TECHNOLOGIES DE LILLE LILLE 1, published 2018)
